Test results reported in paper PMC5951972.

Biological target: MBP-TSR4+5, recombinant thrombospondin repeats 4 and 5 of human properdin expressed in tandem, fused to maltose-binding protein (human)
Experiment: SEC

percent migrating as dimer: 40%
stoichiometry N: 2
Substance: MBP-TSR4+5, recombinant thrombospondin repeats 4 and 5 of human properdin expressed in tandem, fused to maltose-binding protein (domain or fragment)
